The series deals with the molecule itself. Put plainly: SEC; analytical size exclusion chromatography (Superdex 5/150 column) on 50 µl of sample after the Ni-affinity step. On the technique in general: In gel filtration, larger molecules generally elute earlier.

B1: wild type human Glutaminyl Cyclase (hQPCT), Ala33-Leu361, His6-tagged (enzyme, UniProt Q16769 33-361, looked up)
chain: ASAWPEEKNYHQPAILNSSALRQIAEGTSISEMWQNDLQPLLIERYPGSPGSYAARQHIMQRIQRLQADWVLEIDTFLSQTPYGYRSFSNIISTLNPTAKRHLVLACHYDSKYFSHWNNRVFVGATDSAVPCAMMLELARALDKKLLSLKTVSDSKPDLSLQLIFFDGEEAFLHWSPQDSLYGSRHLAAKMASTPHPPGARGTSQLHGMDLLVLLDLIGAPNPTFPNFFPNSARWFERLQAIEHELHELGLLKDHSLEGRYFQNYSYGGVIQDDHIPFLRRGVPVLHLIPSPFPEVWHTMDDNEENLDESTIDNLNKILQVFVLEYLHL
notes: human glutaminyl-peptide cyclotransferase (glutaminyl cyclase), residues Ala33-Leu361, cloned in pQE80L; Not glycosylated (E. coli); Apo-protein mass by MALDI 38735 Da; No preparative size exclusion step was applied to the wild type; also called wild type hQPCT; Glutaminyl-peptide Cyclotransferase; not shown: His6, N-terminal, kept
Turning to B1, the binding result is given as “binds”.

The record behind these values is PMC3744504, “Soluble Variants of Human Recombinant Glutaminyl Cyclase” (PLoS ONE, 2013).
